Measurements published in patent publication US9926369B2, “Methods for treating hepatocellular cancer by administering an anti-Ang-2 antibody” (Regeneron Pharmaceuticals, Inc., priority 2009, dated 2018).

Experiments:
[1] = tested on: COLO 205 (Human Colorectal Adenocarcinoma Cell Line) tumors; assay: COLO 205 mouse tumor model; format: in vivo, mice; settings: COLO 205, NCr nude mice, 4 mg/kg intraperitoneal twice per week; for Avg Tumor Weight: approximately two weeks
Procedure: Briefly, 2×10^6COLO 205 cells in 100 μl of serum-free medium were injected subcutaneously into the flank of 6-8 week old male NCr nude mice (Taconic, Hudson, N.Y.). After tumor volumes reached an average of about 150 mm^3, mice were randomized into groups for treatment with antibody or Fc protein. Mice in each treatment group were administered an anti-Ang-2 antibody or Fc protein at a concentration of 4 mg/kg via intraperitoneal injection twice per week for approximately two weeks. Tumor volumes were measured twice per week over the course of the experiment and tumor weights were measured upon excision of tumors at the conclusion of the experiment. Averages (mean+/−standard deviation) of tumor weight and growth were calculated for each treatment group. “Avg. Tumor Growth” represents the average growth from the time of treatment initiation (when tumors were approximately 150 mm^3). Percent decrease of tumor weight and growth are calculated from comparison to Fc protein measurements.
A similar experiment was carried out to assess the effect of H1H685P, in particular, on COLO 205 tumor growth. Briefly, 2×10^6 COLO 205 cells in 100 μl of serum-free medium were implanted subcutaneously into the right hind flank of 9-11 week-old male SCID CB17 mice. When the tumors reached ˜125 mm^3, mice were randomized into 5 groups (n=7-8 mice/group) and treated twice per week with Fc protein (15 mg/kg), H1H685P (5 or 25 mg/kg) or Control II (5 or 25 mg/kg) for a period of 19 days. Tumor volumes were measured twice per week over the course of the experiment and tumor weights were measured upon excision of tumors at the end of the experiment. Averages of tumor weight and growth from the beginning of treatment were calculated for each group. Percent decrease of tumor weight and growth are calculated from comparison to the Fc control group.
To determine the effect of combining an anti-Ang-2 antibody with a VEGF inhibitor on the growth of COLO 205 xenografts, 2×10^6 cells were implanted subcutaneously into the right hind flank of 6-8 week-old female SCID mice. When the tumors reached an average volume of ˜350 mm^3, mice were randomized into 4 groups (n=6 mice/group) and treated with: human Fc protein (7.5 mg/kg), H1H685P (5 mg/kg), VEGF Trap (see U.S. Pat. No. 7,087,411) (2.5 mg/kg) or the combination of H1H685P+VEGF Trap. Mice were given a total of 3 doses over 10 days of treatment. Tumor volumes were measured twice per week over the course of the experiment. Averages of tumor growth from the start of treatment (mean+/−standard deviation) were calculated for each treatment group. Percent decrease of tumor growth was calculated from comparison to the Fc control group.
To test the effect of H1H685P in combination with a chemotherapeutic agent on tumor growth, 2.5×10^6 COLO 205 tumor cells were implanted subcutaneously into the right hind flank of 8-9 week-old male SCID mice. When the tumors reached an average volume of ˜150 mm^3 (day 17 after implantation), mice were randomized into 4 groups (n=5 mice/group) and treated as follows: the first group was treated sc with 15 mg/kg hFc and intraperitoneally (ip) with 5-FU vehicle; the second group was treated sc with 15 mg/kg of H1H685P; the third group was treated ip with 75 mg/kg of 5-FU; the fourth group was treated with the combination of 15 mg/kg H1H685P sc plus 75 mg/kg 5-FU ip. Mice received a total of three treatments, administered every 3-4 days. Tumor volumes were measured twice per week over the course of the experiment. Average (mean+/−standard deviation) tumor growth from the beginning of treatment until day 38 was calculated for each group. Percent decrease of tumor growth was calculated from comparison to the control group.

[2] = tested on: Tie-2 phosphorylation (Ang-2-mediated) in HUVECs; assay: Inhibition of Ang-2-mediated Tie-2 phosphorylation in FOXO1-adenovirus infected HUVECs; format: cell-based, human; settings: antibody 0.5 μg/ml
Procedure: Further, the inventors have shown that infection of HUVECs with an adenovirus encoding FOXO1 results in expression and secretion of Ang-2, followed by activation of Tie-2 phosphorylation (Daly et al. 2006 PNAS 103:15491).
Anti-Ang-2 antibodies were tested for their ability to inhibit Tie-2 phosphorylation. Briefly, 7×10^5 HUVECs (Vec Technologies, Rensselaer, N.Y.) were plated in 6 cm cell culture dishes in 3.5 ml of MCDB131 Complete medium (Vec Technologies, Rensselaer, N.Y.). The following day, the cells were washed with Opti-MEM (Invitrogen Corp., Carlsbad, Calif.) and fed with 2 ml of Opti-MEM. […] Cells were then washed with MCDB131 and fed with 2 ml of MCDB131 containing anti-Ang-2 antibodies at a concentration of 0.5 μg/ml. At twenty hours post infection, cells were lysed and subjected to Tie-2 immunoprecipitation as described by Daly et al., Proc. Natl. Acad. Sci. USA 103:15491-15496 (2006). Immunoglobulin was collected on protein A/G beads (Santa Cruz Biotechnology, Santa Cruz, Calif.) for one hour. Beads were washed with cold lysis buffer and resuspended in SDS sample buffer for analysis by western blot with antibodies specific for phosphotyrosine (Millipore, Billerica, Mass.) or Tie-2. Signals were detected using HRP-conjugated secondary antibodies and ECL reagents (GE Healthcare, Piscataway, N.J.). X-Ray films were scanned and the phospho-Tie-2 and Tie-2 signals were quantified using ImageJ software. The phospho-Tie-2/Tie-2 ratios were used to determine the % inhibition for each anti-Ang-2 antibody (i.e. Percent inhibition=Reduction in phospho-Tie-2/Tie-2 as compared to control).

[3] = tested on: PC3 (Human Prostate Cancer Cell Line) tumors; assay: PC3 mouse tumor model; format: in vivo, NCr nude mice; settings: PC3, 2 mg/kg twice per week
Procedure: Briefly, 5×10^6 PC3 cells in 100 μl of growth factor-reduced Matrigel (BD Biosciences) were injected subcutaneously into the flanks of 6-8 week old male NCr nude mice (Taconic, Hudson, N.Y.). After tumor volumes reached an average of about 200 mm^3, mice were randomized into groups for treatment. […] Tumor volumes were measured twice per week over the course of the experiment and tumor weights were measured upon excision of tumors at the conclusion of the experiment. Averages (mean+/−standard deviation) of tumor weight and growth were calculated for each treatment group. Percent decrease of tumor weight and growth were calculated from comparison to Fc protein measurements.

| Molecule | % Decrease in Tumor Growth [1] | % Decrease in Tumor Weight [1] | Avg Tumor Growth [1] | Avg Tumor Weight [1] | Inhibition of Tie-2 phosphorylation [2] | Inhibition of Tie-2 phosphorylation (in words) [2] | % Decrease in Tumor Growth [3] | % Decrease in Tumor Weight [3] | Avg Tumor Growth [3] | Avg Tumor Weight [3] |
| --- | --- | --- | --- | --- | --- | --- | --- | --- | --- | --- |
| H1M724N: anti-Ang-2 antibody, HCVR/LCVR SEQ ID NOs 266/274 (antibody, V domains shown) VH: QVQLVESGGGVVQPGRSLRLSCAASGFTLSNYGMHWVRQAPGKGLEWVAVIWHDGSNTYYADSVKGRFTISRDNSKNTLYLQMNSLRAEDTAVYYCTREGLDFWSGYYPNWFDPWGQGTLVTVSS VL: DIQMTQSPSSLSASVGDRVTITCRASQGIRNDLGWYQQKPGKAPKRLIYAASNLQGGVPSRFSGSGSGTEFTLTISSLQPEDFAAYYCLQHNIYPLTFGGGTKVEIK | 54% | 37% | 336 ± 125 mm^3 | 0.531 ± 0.103 g | +++ (75-100%) | Especially robust inhibition | – | – | – | – |
| H1M732N: anti-Ang-2 antibody, HCVR/LCVR SEQ ID NOs 242/250 (antibody, V domains shown) VH: EVQLVESGGGLVRPGGSLRLSCAASGFTFTNAWMSWVRQAPGKGLEWIGQIKSKTDGGTIDYAAPVKGRFTVSRDDSENTLFLQMNSLKTEDTAVYYCAGNWNYVDFDYWGQGTLVTVSS VL: DIQMTQSPSSLSASVGDRVTITCRASQDIRNDLGWYQQKPGKAPKRLIYAASSLQGGVPSRFSGSGSGTEFTLTISSLQPEDFATYYCLQHNSYPFTFGPGTKVDIK | – | – | – | – | ++ (50-75%) | – | – | – | – | – |
| H1H693P: anti-Ang-2 antibody, HCVR/LCVR SEQ ID NOs 90/92 (antibody, V domains shown) VH: EVQLVESGGGLVQPGESLRLSCAASGFTFSSYAMSWVRQGPGKGLEWVSSISGSGGTTYYADSVEGRFTISRDNSKNTLYLHMNSLRAEDTAVYYCAKDFLDYSTYLAFDLWGQGTMVTVSS VL: DIQMTQSPSSVSASVGDRVTITCRASQGISSWLAWYQQKPGKAPKLLIYAASSLQSGVPSRFSGSGSGTDFTLTISSLQPEDFATYYCQQANSFPRTFGQGTKVEIK | – | – | – | – | +++ (75-100%) | Especially robust inhibition | – | – | – | – |
| H2M743N: anti-Ang-2 antibody, HCVR/LCVR SEQ ID NOs 410/418 (antibody, V domains shown) VH: EVQLLESGGGLVQPGGSLRLSCAASGFTFRKYAMSWVRQAPGKGLEWVSVISVSGGNTYYADSVKGRFTISRDNSKNTLYLQLNSLRAEDTAVYYCAKDLTDIVLMVYVDYWGQGTLVTVSS VL: DIQMTQSPSSVSASVGDRVTITCRASQDIDRWLAWYQQKPGKAPKLLIYAASSLQSGVPSRFSGSGSGTDFTLTISTLQPEDFATYYCQQANSLPFTFGGGTKVEIK | – | – | – | – | +++ (75-100%) | – | 50% | 41% | 179 ± 169 mm^3 | 0.372 ± 0.122 g |
| H2M742N: anti-Ang-2 antibody, HCVR/LCVR SEQ ID NOs 386/394 (antibody, V domains shown) VH: DVQLLESGGDLVQPGGSLRLSCEASGFTFRNYVMIWVRQAPGKGLEWVSGISNSGGTTHYTDSVKGRFTISRDNSKNTLYLQINSLRAEDTAVYYCAKGYLDTSLIEGNWFDPWGQGTLVTVSS VL: NIVMTQSPLSLPVTPGEPASISCRSSQSLLHSNGFNYLNWFLQKPGQSPQLLIYLGSNRASGVPDKFSGSGSGTDFTLNINRVEAEDVGIYFCMQTLQTPLTFGGGTKVEIK | 42% | 32% | 427 ± 92 mm^3 | 0.576 ± 0.057 g | ++ (50-75%) | – | – | 35% | 220 ± 102 mm^3 | 0.407 ± 0.076 g |
| H2M750N: anti-Ang-2 antibody, HCVR/LCVR SEQ ID NOs 458/466 (antibody, V domains shown) VH: QVKLVESGGGVVQPGRSLRVSCAASGFTFSSYGMHWVRQAPGKGLEWLAIIWYDGDNKYYSDSVKGRFTISRDNSKNTLYLQMNSLRAEDTAEYYCVRDASIASRFLDYWGQGTLVTVSS VL: DIQMTQSPSSLSASIGDRVTITCRATQDINNYLAWFQQKPGKAPKSLIYATSNLQSGVPSKFSGSGSGTDYTLTISSLQPEDFSTYYCQQYHSYPLTFGGGTKVEIK | – | – | – | – | +++ (75-100%) | Especially robust inhibition | 52% | 37% | 227 ± 195 mm^3 | 0.348 ± 0.128 g |
| H1H704P: anti-Ang-2 antibody, HCVR/LCVR SEQ ID NOs 186/188 (antibody, V domains shown) VH: QVQLVESGGDVVQPGRSLRLSCAASGFTFSSYGMHWVRQAPGKGLEWVAIIWYDGSNKYYADSVKGRFTISRDNSKNTLYLQMNSLRVEDTAVYSCARDFSISSRHFDYWGQGTLVTVSS VL: DIQMTQSPSSLSASVGDRVTITCRASQAINNYLAWFQQKPGKAPKSLIYATSNLQSGVPSQFSGSGSGTDYTLTISSLQPEDFATYYCQQYYIYPITFGQGTRLEIK | – | – | – | – | +++ (75-100%) | Especially robust inhibition | – | – | – | – |
